In patent US20230049152A1 (Genentech, published 2023):
Changes are numbered by the printed parent chain.

Assays:
[1] = target: T1, CCR8 with C-terminal FLAG; experiment: flow cytometry, HEK293 transfected with CCR8 with C-terminal FLAG
T1 construct: expressed on transfected HEK293 cells; also called hCCR8 with a C-terminal FLAG tag

hCCR8 D6A = target: T2, hCCR8 D6A (human, UniProt P51685 1-355); experiment: flow cytometry, HEK293 transfected with hCCR8 D6A with C-terminal FLAG
T2 construct: alanine point mutant on transfected HEK 293 cells

P24A = target: T3, P24A; experiment: flow cytometry, HEK293 transfected with hCCR8 P24A with C-terminal FLAG; sheet prints [huCCR8]=0.02 ug/ml
T3 construct: single alanine mutant of hCCR8; also called hCCR8 P24A
T3 receptor chain: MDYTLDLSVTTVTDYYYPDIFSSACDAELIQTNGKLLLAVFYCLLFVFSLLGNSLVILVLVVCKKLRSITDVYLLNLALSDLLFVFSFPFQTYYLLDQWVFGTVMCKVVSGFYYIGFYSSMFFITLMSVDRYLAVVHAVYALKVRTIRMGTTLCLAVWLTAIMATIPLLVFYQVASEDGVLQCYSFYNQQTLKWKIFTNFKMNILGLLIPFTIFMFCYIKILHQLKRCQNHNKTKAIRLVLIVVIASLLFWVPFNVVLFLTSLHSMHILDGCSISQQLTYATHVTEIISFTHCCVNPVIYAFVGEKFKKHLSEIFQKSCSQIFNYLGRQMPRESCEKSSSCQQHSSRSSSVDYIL

T13A = target: T4, T13A; experiment: flow cytometry, HEK293 transfected with hCCR8 T13A with C-terminal FLAG; sheet prints [huCCR8]=0.02 ug/ml
T4 construct: single alanine mutant of hCCR8; also called hCCR8 T13A
T4 receptor chain: T3 receptor chain with T13A, A24P
Protocol: (§1) FIGS. 16A-16B depict the epitope maps for hu.Ab5.H13L1 (FIG. 16A) and hu.Ab4.H12L3 (FIG. 16B) mAbs.
(§2) To epitope map fucosylated hu.Ab5.H13L1, the binding to alanine point mutations in human CCR8 was analyzed by flow cytometry.

V12A = target: T5, V12A; experiment: flow cytometry, HEK293 transfected with hCCR8 V12A with C-terminal FLAG; sheet prints [huCCR8]=0.02 ug/ml
T5 construct: single alanine mutant of hCCR8; also called hCCR8 V12A
T5 receptor chain: T3 receptor chain with V12A, A24P

Y15A = target: T6, Y15A; experiment: flow cytometry, HEK293 transfected with hCCR8 Y15A with C-terminal FLAG; sheet prints [huCCR8]=0.02 ug/ml
T6 construct: single alanine mutant of hCCR8; also called hCCR8 Y15A
T6 receptor chain: T3 receptor chain with Y15A, A24P

Y16A = target: T7, Y16A; experiment: flow cytometry, HEK293 transfected with hCCR8 Y16A with C-terminal FLAG; sheet prints [huCCR8]=0.02 ug/ml
T7 construct: single alanine mutant of hCCR8; also called hCCR8 Y16A
T7 receptor chain: T3 receptor chain with Y16A, A24P

Y17A = target: T8, Y17A; experiment: flow cytometry, HEK293 transfected with hCCR8 Y17A with C-terminal FLAG; sheet prints [huCCR8]=0.02 ug/ml
T8 construct: single alanine mutant of hCCR8; also called hCCR8 Y17A
T8 receptor chain: T3 receptor chain with Y17A, A24P
Protocol: as §1, §2

- binding result [1]: binds
- binding result (hCCR8 D6A): no binding (tested: 0.02 ug/ml)
- binding result (P24A): binds
- binding result (T13A): binds
- binding result (V12A): binds
- binding result (Y15A): binds
- binding result (Y16A): binds
- binding result (Y17A): binds
B1: hu.Ab5.H13L1 (antibody, human IgG1, kappa)
heavy: not shown
light: DIQVTQSPSSLSASVGDRVTITCQASENIANALAWYQQKPGKPPKFLIYGASNLASGVPSRFSGSGSGTDFTFTISSLQPEDIATYYCQQAYYGNSFVEGTFGGGTKVEIKRTVAAPSVFIFPPSDEQLKSGTASVVCLLNNFYPREAKVQWKVDNALQSGNSQESVTEQDSKDSTYSLSSTLTLSKADYEKHKVYACEVTHQGLSSPVTKSFNRGEC
notes: fucosylated human IgG1; also called Ab5 variant
